B1: MIP-1β (ligand, UniProt P13236 24-92, looked up)
chain: APMGSDPPTACCFSYTARKLPRNFVVDYYETSSLCSQPAVVFQTKRSKQVCADPSESWVQEYVYDLELN
notes: also called macrophage inflammatory protein 1β
B2: MIP-1α (ligand, UniProt P10147 24-92, looked up)
chain: SLAADTPTACCFSYTSRQIPQNFIADYFETSSQCSKPGVIFLTKRSRQVCADPSEEWVQKYVSDLELSA
notes: also called macrophage inflammatory protein 1α
B3: MCP-3 (ligand)
chain: not shown
B4: human eotaxin (ligand)
chain: not shown
B5: RANTES (ligand, UniProt P13501 24-91, looked up)
chain: SPYSSDTTPCCFAYIARPLPRAHIKEYFYTSGKCSNPAVVFVTRKNRQVCANPEKKWVREYINSLEMS
B6: murine eotaxin (ligand, UniProt P48298 24-97, looked up)
chain: HPGSIPTSCCFIMTSKKIPNTLLKSYKRITNNRCTLKAIVFKTRLGKEICADPKKKWVQDATKHLDQKLQTPKP

Biological target: T1, human eosinophil eotaxin receptor CC CKR3, stably expressed in AML14.3D10 cells (human, UniProt P51677 1-355)
T1 sequence: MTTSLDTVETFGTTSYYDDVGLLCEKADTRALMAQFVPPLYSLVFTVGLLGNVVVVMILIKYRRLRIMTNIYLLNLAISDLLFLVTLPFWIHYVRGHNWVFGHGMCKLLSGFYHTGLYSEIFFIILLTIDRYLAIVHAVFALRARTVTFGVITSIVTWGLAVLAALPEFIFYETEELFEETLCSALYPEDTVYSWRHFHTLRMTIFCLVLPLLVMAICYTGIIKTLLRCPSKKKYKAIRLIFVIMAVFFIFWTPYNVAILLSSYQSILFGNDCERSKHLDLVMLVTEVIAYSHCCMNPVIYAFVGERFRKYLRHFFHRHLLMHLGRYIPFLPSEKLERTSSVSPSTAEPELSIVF
Assay: cell-based or functional assay

Binder | Ca^2+-flux (intracellular Ca^2+ levels)
B1 | > 1 µM
B2 | > 1 µM

Biological target: T2, endogenous eosinophil eotaxin receptor (CC CKR3) on primary human eosinophils (human, UniProt P51677 1-355)
T2 construct: The target as printed is 'eosinophils' (primary cells from allergic and asthmatic donors); It also says eosinophils express a much lower level of CC CKR1; also called primary eosinophils
T2 sequence: T1 sequence
Assay: competition against 125I-MCP-3, primary eosinophils
Protocol: (§1) To provide additional pharmacological evidence, binding studies were conducted on primary eosinophils. […] The number of binding sites varied by less than 2-fold for the 3 donors used in the studies. […] Similarly, the Kd's obtained by competition against ¹²⁵I-MCP-3 on eosinophils are effectively indistinguishable to those measured against cloned CC CKR3 (see Table 1). All of the observations and measurements, taken together with the Western blot showing expression of CC CKR3, verify that CC CKR3 is the eosinophil eotaxin receptor, and appears to be largely responsible for mediating the effects of most β-chemokines on eosinophils.
(§2) Competition binding experiments were carried out against the indicated iodinated ligand as follows and as described herein. Equilibrium binding of β-chemokines to AML14.3D10 cells expressing CC CKR3 and to primary eosinophils was examined with increasing concentrations of unlabelled human eotaxin, murine eotaxin, RANTES, MCP-3, or MCP-1 to compete against fixed concentrations of either ¹²⁵I-human eotaxin, or ¹²⁵I-MCP-3. Also the competition with 100 nM concentrations of MIP-1α, and MIP-1β was examined. The experiments were carried out either with AML14.3D10 cells expressing CC CKR3, or with eosinophils. All values are the averages of triplicate determinations. Typically, 4000-6000 cpm of iodinated ligand was bound in the absence of compeititor with S/N ratios exceeding 15. Human and murine eotaxin are the human and murine chemokines, respectively. “N.B.” means that no competition was observed. All results are the averages of the number of experiments shown in parenthesis.

Binder | Kd
B3 | 1100 pM
B4 | 200 pM
B5 | 900 pM
B6 | 200 pM

Biological target: T2, endogenous eosinophil eotaxin receptor …
Assay: competition against 125I-human eotaxin, primary eosinophils
Protocol: as §1, §2

Binder | Kd
B3 | 3000 pM
B4 | 100 pM
B5 | 2600 pM
B6 | 100 pM

Biological target: T2, endogenous eosinophil eotaxin receptor …
Assay: competition against 125I-human eotaxin on primary eosinophils
Protocol: as §1
Competition binding experiments were carried out against the indicated iodinated ligand as follows and as described herein. Equilibrium binding of β-chemokines to AML14.3D10 cells expressing CC CKR3 and to primary eosinophils was examined with increasing concentrations of unlabelled human eotaxin, murine eotaxin, RANTES, MCP-3, or MCP-1 to compete against fixed concentrations of either ¹²⁵I-human eotaxin, or ¹²⁵I-MCP-3. Also the competition with 100 nM concentrations of MIP-1α, and MIP-1β was examined. The experiments were carried out either with AML14.3D10 cells expressing CC CKR3, or with eosinophils. All values are the averages of triplicate determinations. […]

Binder | binding result
B1 | no binding (tested: 100 nM)
B2 | no binding (tested: 100 nM)

Biological target: T1, human eosinophil eotaxin receptor CC …
Assay: competition against 125I-MCP-3, intact AML14.3D10 cells expressing CC CKR3
Protocol: Competition studies were also carried out against ¹²⁵I-MCP-3. […] Thus despite some small quantitative differences the overall ligand selectivity of the receptor is the same whether measured by competition against eotaxin or MCP-3, and the order of potency, eotaxin>MCP-3=RANTES>>MCP-1, is identical.
as §2

Binder | Kd
B3 | 700 pM
B4 | 200 pM
B5 | 500 pM
B6 | 300 pM

Biological target: T1, human eosinophil eotaxin receptor CC …
Assay: competition against 125I-human eotaxin on AML14.3D10 cells expressing CC CKR3
Protocol: (§3) Results with murine eotaxin were essentially identical. […] Clearly, CC CKR3 is a high affinity receptor for eotaxin.
as §2

Binder | binding result
B1 | no binding (tested: 100 nM)
B2 | no binding (tested: 100 nM)

Biological target: T1, human eosinophil eotaxin receptor CC …
Assay: competition against 125I-human eotaxin, intact AML14.3D10 cells expressing CC CKR3
Protocol: as §3, §2

Binder | Kd
B3 | 2700 pM
B4 | 100 pM
B5 | 3100 pM
B6 | 100 pM

Source: patent US20020192214A1 (published 2002)
